Results taken from the DeepSol protein solubility set.

Test: soluble on expression in E. coli; label from the status in PepcDB or PDB records

Row | Sequence | soluble on expression in E. coli
1 | PLSEAELALFDPYSKEESTGPSPTHTGELAAIEVESKRLDQEPWEPGGQEEEEAEDGEPAPAYLGQATELITQALRNEKAGAYAAALQGYQDGVHILLQGVSGDPSPARREGVKKKAAEYLKRAEMLHTHLP | soluble
2 | MSLDLKLGGQVILVVGGAGTIGSEVVKLLTEEGATAVAASRSTPLSIDASDEASVRAGIDQVIAEHGRLDGLVVSSAPAAQTLSAETADDPDTVLAAIEGKAITFMKAATVALEKMREAGHGRIVALSGMNSYKTLSTTASARNAALNVVVKNLADRHAGTGITVNAISPGFVVAEPDAEVNRANGDTTVEEVAEAIAFLLSPRTASISGEIISVGHKAKGEGHHHHHH | not soluble
3 | MSLKITDVKVWLVQGIKYNWTLLKIYTDEGYTGVGEATNWPGSPIVFEAAKHVGQRIIGLDPMKTDFIWTKLYRDLNWIGPYGASLCAISGIDMALLDLKAKVLGVPCYELLGGAYRKDIQLYANYWFTGGGHNEADYAAQARRVMDAGFTGLKFDPFAHTNYFYGEDLASNLTLTAEQQDLAFNVSKAVREAVGSECDIMIETHAMLNYRVAVKMAERLAKLDITWYEEPAGPESSQTLRAMRERIPSDVAICVGERHYTRFGIRSLLEKHVCDVIMPDITRCGGPSEMKRMATMAEAYNVLIAPHNPNGPLSTLASSHVCAAIPNFFRQEFMFNDVPWRDTVIDHPIAEMVYDGHLHLSDRPGLGVDLVEEEMEKHPGITTDAPDNFYIEGHHHHHH | soluble
4 | MGLCVSVNRNEYVSSSTTAKIVTINGDLREYDVPVLASQVLESESTSSSSSSSSSSYFLCNSDSLYYDDFIPAIESDEILQANQIYFVLPISKRQYRLSASDMAALAVKASVAIEKAAGKKNRRRRSGRISPVVTLNQANDNRIAAVNNRIGGEATNMMMQKGKLPNRTTPFKDTNGYSRSGSVRKLKRYTSGRAKLAVRSFRLRLSTIYEGSSFN | not soluble
5 | MNSQQEWEHAYSLAERMYNKQAPTKREELNPTERVICSRFETIFDYDPFKDEYTFRDQALLFSTPVQPKCRTVAEADLHELKENTAKLNIPMPSYINICPIYALLPFTVLVFNNSQHAHKSLSDDMERAAATFRNPHESEIVPGAMYIFKQKHGKAYRCIILSEDGDMNIPDAERKYLVAFIDNVQIVSVKQKTLFVSDQFSIKDYPCALHCARIVGISAIRKSYVSGMNQFILNFYDAKEKRKAGMFAFIYKLDKEEKKLVIDYPSLLGTPKTTSTEIRTAVGHQIVASKDPVSLTFEQLNKKEVPEFKYLNSTDDDSDVELDLIEHDTKSVNPVASSHPTSSSMDDCPYGRASIARAKDYQLRLPPHSQKGLSSSSLLGSSYPVSNSIKNDITKQSESNRADATNISFSSFESTKSDISPQNNQNVEETSTPTVPPNSTIQENEEDEIMSPASIIRAPSRLAGSLNKVSIERPNTPLPTSSKNSEHNMSEISTYEASSISSHHLVPQSPSVPKTNYTVPVVQRPLTAPEKFRDPFGGPGSSDILNTKMLCSEKNIVPSNKFGRQISPGKDDKNENYQYSRMETKPQTLFAPVLDENQRQSSSSNMMCQIPDISSVAQVGFL | not soluble
6 | MSLVKISNVRVRPLVLPLKQPYHWSYGIRESFAVNLIEIEADDGTVGIGECTVAPDQTGTAAILYRLAKHLVGHSPHDVAPLIARIFHQEYLGHGANIMRAANQIFSGIDMAMWDLQGKLAGLPVHQLLGGAHRKAVGYFYFLQGETAEELARDAAVGHAQGERVFYLKVGRGEKLDLEITAAVRGEIGDARLRLDANEGWSVHDAINMCRKLEKYDIEFIEQPTVSWSIPAMAHVREKVGIPIVADQAAFTLYDVYEICRQRAADMICIGPREIGGIQPMMKAAAVAEAAGLKICIHSSFTTGITTCAEHHIGLAIPNLDDGNQIMWQLVQEDIVSSPDLTPKNGWLDAFRKPGLGFQLAEDLVAEGEGRYAASREGHHHHHH | soluble
7 | MEMILEEKDASDWIYRGEGGANLVLAYAGSSPLFVGKVIRIQKARRNDKAIKNANGVVSVLTSDEQHLWRENNELISSPNKEVLEQRYVKNVIIPLLGPKHVDAGVRVSVSKEFLECVDKKVTKQRPLWRVNAANVDTSHDSALILNDHSLFSQGISSGGDCISVEIKPKCGFLPTSRFIGKENMLKTSVSRFKMHQLLKLEYNEISAASAYDPLDLFSGSKESVLEAIKALYSTPQNNFRVFLNGSLILGGSGESTGRTSPEIGYAFEDALKGFIQSEDGHRTECFLQLVSDAVYGSGVLDRLLEIQKLDKLDIEGAIHSYYDLINQPCPICKEGKPLEAELSLHALPLDESLKIVKEYLIAATAKDCSIMISFQSRNAWDSEPSGDYVSLKPTNQTFDYKVHFIDLSLKPLKRMESYYKLDKKIISFYNRKQKAENTAEQIGNSKPSHS | soluble
8 | YSFIGSPVFSREFNISEMREYYLSFFEARGHTRINRYPVVARWRDDIYLTIASIADFQPFVTSGQVPPPANPLTISQPCIRLNDLDSVGRSGRHLTNFEMMAHHAFNRRDNEIYWKEHTLELCDELLNSLKVNPLAVTYKEEPWAGGGNAGPCVEVIVHGLELATLVFMDLKTDKKGDIEIKGETYSKMDNYIVDTGYGLERFVWASRGSPTIYDALFPGIVNELMGLAGIEHELNDSEYANI | not soluble
9 | MSDSIQERYLVGYALAAKKQHSFIQPSLIEHSRQRGIDLVKLDPTKSLLEQGKLDCIIHKLYDVYWKENLHEFREKCPGVPVIDLPEAIERLHNRVSMLEVITQLRFPVSDSERFGVPEQVVVMDSSVLSGGGALGELKFPVIAKPLDADGSAKSHKMFLIYDQEGMKILKAPIVLQEFVNHGGVIFKVYVVGDHVKCVKRRSLPDISEEKIGTSKGSLPFSQISNLTAQEDKNIEYGEDRSLEKVEMPPLSFLTDLAKAMRESMGLNLFNFDVIRDAKDANRYLIIDINYFPGYAKMPSYEPVLTEFFWDMVTKKNHV | soluble
10 | MNILQFNVRLAEGGAAGVALDLHLRALQKGLTSHFVYGYGKGGKKSVSHHRYPQVIKQTPRGTAIANIALFRFLNRDLFGNLDNLYRTVIQTSGPLVLHFHVLHSYWLNLADIVTFCEKVKAQKPDVTLVWTLHDHWSVTGRCAFTDGCEGWKSGCQKCPTLSNYPPVRVDRAHQLIDGKRQRFRDMLRLGCRFISPSQHVAEAFNSVYGAGRCQIINNGIDLATEAILAQLSPVPLNPGKPRIAIVAHDLRYDGKTDQRLVHDMMALGEKIELHTFGKFSPFTGQNVVNHGFETDKRKLMSALNEMDALVFSSRVDNYPLILCEALSIGVPVIATHSEAAQEVLAKSGGQTFAATDVLRLAQRRKPEIAQAVFGATLDAFRMRSRVAYSGQQMLEEYVSFYQNLLEHHHHHH | not soluble
11 | MAELKDQLSLLGRKTEYKQDYAPEVLEAFDNKHPENDYWVRFNCPEFTSLCPITGQPDFAEIRISYIPDIKMVESKSLKLYLFSFRNHGAFHEDCVNIIMKDLIKLMNPKYIEVTGIFTPRGGISIYPYANYGRPGTKFEQMAEHRLMNRE | not soluble
12 | MTAFQSLKPSTLSREDFVKAFADIYEHSPWVAEKAYELGLDASVDQIETLHQRMSDILLSADHASQLALINAHPDLAGKAAVQGQLTEASTNEQAGAGIHQCTAEEFQRFTELNDAYKAKFKFPFIMAVKGSNRHQILAAFETRIHNSVDTEFKCALAEINKIALFRLLTLLEHHHHHH | not soluble
13 | MSLSGKLTYKELIIEVLKQTKKPLNVSEIWQKALEKGLDKKLSSIGQTPTQTIWNRLLTDKINFLKTSIKPTTFWLKERENELLKLDNKNEITNEKQEKNKFHERDLHPLLVKFLYENLDFNLNCKTIYHEQSKKGKGGEDKWNYPDIVGVYFPYDDYEKETITLLENIKQNSYKLFSFELKIALNFSNLKECYFQAVSNSSWANEGYLVVLQEIDSEVLSELRRLNQSFGIGVIKLEKDISNSQILISAKEKELDIQTLNMLINKNPNFKEFIDDINKQIKVGKEAKIQANFDEIKSDEEMEKYLKEKCILEKEGHHHHHH | soluble
